From US20090074722A1, “Products and methods for treating PTP lar diseases” (MAX-PLANCK-GESELLSCHAFT ZUR, priority 1999, published 2009)

Biological target: T1, plakoglobin (Homo sapiens, UniProt P14923)
T1 construct: expressed in transfected cells; host or cells: human embryonic kidney 293 cells, transient, pervanadate-treated, used as lysate; the GST-PTP LARi partner was made in E. coli
T1 sequence (P14923 1-745): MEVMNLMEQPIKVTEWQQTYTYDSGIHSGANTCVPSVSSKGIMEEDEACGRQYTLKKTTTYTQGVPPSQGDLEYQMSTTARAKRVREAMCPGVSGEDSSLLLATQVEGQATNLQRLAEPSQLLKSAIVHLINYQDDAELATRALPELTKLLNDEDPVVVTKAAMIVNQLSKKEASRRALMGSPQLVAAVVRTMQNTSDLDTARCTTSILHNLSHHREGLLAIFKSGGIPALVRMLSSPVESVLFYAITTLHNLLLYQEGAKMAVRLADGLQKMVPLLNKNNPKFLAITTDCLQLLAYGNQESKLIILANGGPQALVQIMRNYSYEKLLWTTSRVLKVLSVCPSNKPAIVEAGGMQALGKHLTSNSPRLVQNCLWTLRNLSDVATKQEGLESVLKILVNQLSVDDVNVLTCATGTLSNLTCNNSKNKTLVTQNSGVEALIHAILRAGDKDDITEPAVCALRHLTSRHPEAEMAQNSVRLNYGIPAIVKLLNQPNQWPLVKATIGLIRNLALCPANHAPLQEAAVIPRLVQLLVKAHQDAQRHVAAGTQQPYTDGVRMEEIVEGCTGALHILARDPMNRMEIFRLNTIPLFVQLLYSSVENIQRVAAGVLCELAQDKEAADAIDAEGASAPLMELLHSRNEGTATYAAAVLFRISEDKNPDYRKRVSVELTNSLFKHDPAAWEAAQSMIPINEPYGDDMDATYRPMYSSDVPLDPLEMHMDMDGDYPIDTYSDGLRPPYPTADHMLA
Test: In vitro binding assay (GST pull-down), plakoglobin
Details: lysates of pervanadate treated 293 cells overexpressing plakoglobin
Experimental: After 24 h of serum starvation, the cells were stimulated with pervanadate for 10 minutes before lysis. Equal amounts of lysats were incubated with the GST-PTP LAR cytoplasmic fusion protein (GST-PTP LARi) or a threefold molar excess of GST. Lysates of control vector transfected 293 cells were incubated with the GST-PTP LAR cytoplasmic fusion protein (GST-PTP LARi). Complexes were immobilized on glutathione-sepharose, and precipitates were separated by SDS-PAGE. Bound proteins were analyzed by Western blotting with an anti-β-catenin antibody (left) or an antibody against plakoglobin (right). Arrows indicate the proteins of interest. Molecular mass standards in kilodaltons are shown on the left. […]
To investigate the potential association of PTP LAR with the cadherin/catenin-complex in intact cells, subconfluent human MCF7 cells were stimulated with EGF, were lysed, and were immunoprecipitated with antibodies either against PTP LAR or the cadherin/catenin-complex. Western blotting analysis with specific antibodies to β-catenin and E-cadherin (FIG. 5A) or plakoglobin and E-cadherin (FIG. 5B) detected these proteins in anti-human PTP LAR immunoprecipitates with the monoclonal antibody 11.1A against the extracellular domain of human PTP LAR and vice versa. […]

B1: GST-PTP LAR cytoplasmic: GST fusion protein comprising the entire cytoplasmic domain (amino acids 1259-1881) of human PTP LAR (protein)
chain: PEMLWVTGPVLAVILIILIVIAILLFKRKRTHSPSSKDEQSIGLKDSLLAHSSDPVEMRRLNYQTPGMRDHPPIPITDLADNIERLKANDGLKFSQEYESIDPGQQFTWENSNLEVNKPKNRYANVIAYDHSRVILTSIDGVPGSDYINANYIDGYRKQNAYIATQGPLPETMGDFWRMVWEQRTATVVMMTRLEEKSRVKCDQYWPARGTETCGLIQVTLLDTVELATYTVRTFALHKSGSSEKRELRQFQFMAWPDHGVPEYPTPILAFLRRVKACNPLDAGPMVVHCSAGVGRTGCFIVIDAMLERMKHEKTVDIYGHVTCMRSQRNYMVQTEDQYVFIHEALLEAATCGHTEVPARNLYAHIQKLGQVPPGESVTAMELEFKLLASSKAHTSRFISANLPCNKFKNRLVNIMPYELTRVCLQPIRGVEGSDYINASFLDGYRQQKAYIATQGPLAESTEDFWRMLWEHNSTIIVMLTKLREMGREKCHQYWPAERSARYQYFVVDPMAEYNMPQYILREFKVTDARDGQSRTIRQFQFTDWPEQGVPKTGEGFIDFIGQVHKTKEQFGQDGPITVHCSAGVGRTGVFITLSIVLERMRYEGVVDMFQTVKTLRTQRPAM
association with plakoglobin: associate specifically
